The values that follow come from publication doi:10.1101/2023.10.23.563687.

The target of this test is full-length BCL6 construct overexpressed in HEK293T cells (ternary complex nanoBRET) (UniProt P41182).

Chain of full-length CDK9 construct overexpressed in HEK293T cells (ternary complex nanoBRET) (P50750 whole entry, one chain of several): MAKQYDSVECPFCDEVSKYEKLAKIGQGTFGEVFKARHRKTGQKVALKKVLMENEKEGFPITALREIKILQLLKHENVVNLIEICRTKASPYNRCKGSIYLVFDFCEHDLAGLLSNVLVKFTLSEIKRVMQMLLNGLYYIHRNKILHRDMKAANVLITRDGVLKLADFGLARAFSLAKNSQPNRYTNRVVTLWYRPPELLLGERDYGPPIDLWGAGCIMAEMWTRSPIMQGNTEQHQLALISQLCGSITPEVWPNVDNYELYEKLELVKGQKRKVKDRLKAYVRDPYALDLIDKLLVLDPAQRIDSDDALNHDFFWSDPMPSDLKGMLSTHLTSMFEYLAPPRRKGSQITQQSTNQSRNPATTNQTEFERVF

“full-length CDK9 construct overexpressed in HEK293T cells (ternary complex nanoBRET) (from UniProt P50750 1-372) (enzyme)” had a cell killing of SUDHL5 DLBCL cells by CDK-TCIP1, 72-hour cell viability assay of 6.9 nM.
